Publication doi:10.1101/2020.07.06.189977 (bioRxiv, 2020)

Biological target: the molecule itself
Test: crystal structure

B1: ERα-L372S/L536S double-mutant ligand-binding domain (LBD, amino acid residues 298–554) (domain or fragment, UniProt P03372 298-554, looked up)
chain: IKRSKKNSLALSLTADQMVSALLDAEPPILYSEYDPTRPFSEASMMGLLTNLADRELVHMINWAKRVPGFVDLTSHDQVHLLECAWLEILMIGLVWRSMEHPGKLLFAPNLLLDRNQGKCVEGMVEIFDMLLATSSRFRMMNLQGEEFVCLKSIILLNSGVYTFLSSTLKSLEEKDHIHRVLDKITDTLIHLMAKAGLTLQQQHQRLAQLLLILSHIRHMSNKGMEHLYSMKCKNVVPSYDLLLEMLDAHRLHAPTS
binding result: binds
